The target in assay [1] is T1, FLAG HIS tagged soluble IL-6Ra (human, UniProt P08887 20-358, limits assumed).
T1 construct: the key was followed; also called HIS FLAG sIL-6R; FLAG-sIL-6R
T1 sequence: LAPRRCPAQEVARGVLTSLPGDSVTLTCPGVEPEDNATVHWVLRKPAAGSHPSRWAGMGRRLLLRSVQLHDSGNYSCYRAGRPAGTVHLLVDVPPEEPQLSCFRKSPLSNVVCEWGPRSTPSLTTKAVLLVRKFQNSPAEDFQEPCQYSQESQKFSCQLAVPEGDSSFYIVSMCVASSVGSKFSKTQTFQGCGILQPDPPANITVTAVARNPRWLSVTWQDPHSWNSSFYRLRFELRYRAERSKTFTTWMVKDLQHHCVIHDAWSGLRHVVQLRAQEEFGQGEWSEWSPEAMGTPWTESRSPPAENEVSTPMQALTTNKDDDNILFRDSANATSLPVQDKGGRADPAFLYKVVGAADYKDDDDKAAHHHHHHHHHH
Briefly: phage ELISA.

Assay [2] deals with T2, biotinylated anti-FLAG monoclonal antibody (Sigma F9291).
T2 construct: Control coat of the phage ELISA plates (streptavidin plate treated with the anti-FLAG antibody, then MPBS only); also called anti FLAG antibody treated plates alone
Briefly: phage ELISA, anti-FLAG treated plate alone. On the technique in general: ELISA stands for enzyme-linked immunosorbent assay.

The target in assay [3] is T1, FLAG HIS tagged soluble IL-6Ra. Briefly: phage ELISA, antigen on anti-FLAG plate.
For assay [4] the target is unchanged. Briefly: ELISA, IgG captured by anti-human Fc, 50 nM protein. Here is the method: (§1) Immunoassay plates were washed 3 times using PBST, then blocked by addition of 300 μl/well MPBS for 1 h at room temperature. After a second washing step 2 μg/ml of the anti-complex antibody in PBS was added to the plate at 50 μl/well. The plates were incubated for 1 h at room temperature before being washed again as previously described. FLAG-tagged reagents (IL-6, sIL-6R, Hyper Complexes) were diluted to 50 nM in MPBS. Complexes were made using 50 nM of the FLAG-tagged component and a 2-fold molar excess of the untagged component. Four-fold serial dilutions were prepared of each of the reagents, which were then added to duplicate wells of the immunoassay plates at 50 μl/well. Control wells containing 50 nM irrelevant protein (in this case his FLAG tagged murine GMCSF-R), or MPBS only were also prepared. The immunoassay plates were then incubated for 1 h at room temperature. After a further washing step, biotinylated anti-FLAG monoclonal antibody (Sigma) diluted to 1 μg/ml in MPBS was added to all wells at 50 μl/well. The plates were incubated for 1 h at room temperature before the plates were again washed as before. Europium labelled streptavidin (Perkin Elmer 1244-360) was diluted to 100 ng/ml in Delfia assay buffer (Perkin Elmer 4002-0010), added to all wells at 50 μl/well and incubated for 1 h at room temperature. The immunoassay plates were then washed 7 times in Delfia wash buffer, consisting of 0.05 M Tris buffered saline (NaCl-0.138 M, KCl-0.0027 M) Tween 20 (0.05%), pH 8.0 (at 25° C.). A 50 μl volume of Delfia enhancement solution (Perkin Elmer 4001-0010) was then added to all wells. The plates were incubated for 10 mins before the Time-resolved fluorescence was measured at 620 nm using an EnVision plate reader.

For assay [5] the target is unchanged. The assay can be described thus: ELISA and HTRF soluble binding assay, IgG.
The target of assay [6] is T3, HIS FLAG irrelevant receptor.
T3 construct: Unnamed control of the HTRF soluble assay; also called irrelevant FLAG HIS receptor
Briefly: HTRF soluble binding assay, 1 nM IgG, 20 nM HIS FLAG protein. On the procedure: (§2) Purified IgG from positive clones identified from screening of crude periplasmic scFv and purified scFv, were tested in a HTRF® assay for binding to FLAG HIS tagged Hyper IL-6, FLAG HIS IL-6 and FLAG HIS sIL-6R.
(§3) Example data for binding of IgG of positive clones identified from screening of crude periplasmic scFv. Data shown in table 3 is expressed as % delta F at an IgG concentration of 1 nM (final assay concentration) and 20 nM of HIS FLAG protein (final assay concentration).
For orientation: In TR-FRET formats the signal depends on donor and acceptor labels being close together.

Assay [7] addresses T1, FLAG HIS tagged soluble IL-6Ra. The assay is described as above. On the procedure:
as §2, §3

The target of assay [8] is T4, HIS FLAG irrelevant ligand.
T4 construct: Unnamed control of the HTRF soluble assay; also called irrelevant FLAG HIS ligand
Described as above. On the procedure:
as §2, §3

Assay [9] addresses T5, FLAG HIS tagged Hyper IL-6.
T5 construct: also called HIS FLAG Hyper IL-6
The assay can be described thus: HTRF, inhibition of Hyper IL-6 binding to biotinylated gp130 Fc; IgG. On the procedure: Purified IgG from positive clones identified from screening of crude periplasmic scFv and purified scFv were tested in a HTRF® assay for inhibition of binding of FLAG HIS tagged Hyper IL-6 binding to biotinylated recombinant human gp130 Fc. This assay was performed as for purified scFv (Example 3) with the following modifications. 6 nM biotinylated human recombinant gp130 Fc (10 μl/well) was used to give a final concentration of 1 nM of gp130Fc.
Purified scFv were diluted 1:3 by transferring 15 μl of purified scFv to 30 μl assay buffer and mixing by pipetting in 96 well plate (Greiner 650201). Dilutions were carried out sequentially in duplicate a further 9 times. 3 nM GP130 Fc (10 μl/well) to give a final concentration of 0.5 nM, 6 nM Hyper IL-6 (10 μl/well) to give a final concentration of 1 nM and combined HTRF reagents 2.598 nM anti-flag IgG labelled with cryptate and 30 nM anti-human Fc antibody labelled with XL665 (10 μl/well) were added to 30 μl of purified scFv titration in 96 well plate. 40 μl was then transferred to a black 384 well optiplate. All dilutions were performed in assay buffer.

Assay [10] addresses T6, Complex 2: IL-6/HIS FLAG sIL-6R (human, UniProt P05231 30-212; P08887 20-358, limits assumed).
T6 construct: Non-covalent complex made by pre-incubating the two proteins; Untagged IL-6 was bought; also called IL-6/sIL-6R complex consisting of untagged ligand and FLAG tagged receptor
The assay can be described thus: ELISA, IgG captured by anti-human Fc, 50 nM protein. Here is the method: as §1

Assay [11] addresses T5, FLAG HIS tagged Hyper IL-6. The description is as above. Here is the method:
as §1

Assay [12] concerns the target T7, HIS FLAG tagged human IL-6 (human, UniProt P05231 30-212).
T7 construct: also called HIS FLAG IL-6; FLAG-IL-6
The description is as above. On the procedure:
as §1

The target of assay [13] is T8, Complex 1: HIS FLAG IL-6/sIL-6R (human, UniProt P05231 30-212; P08887 20-358, limits assumed).
T8 construct: Non-covalent complex made by pre-incubating the two proteins; The untagged sIL-6R was bought; also called IL-6/sIL-6R complex consisting of FLAG tagged ligand and untagged receptor
Described as above. On the procedure: as §1

The target in assay [14] is T7, HIS FLAG tagged human IL-6. Briefly: ELISA and HTRF soluble binding assay, IgG.
The target in assay [15] is T5, FLAG HIS tagged Hyper IL-6. Briefly: HTRF soluble binding assay, 1 nM IgG, 20 nM HIS FLAG protein. Here is the method:
as §2, §3

The target in assay [16] is T7, HIS FLAG tagged human IL-6. Described as above. On the procedure: as §2, §3

B1: Antibody 1 scFv (scFv, V domains shown)
VH: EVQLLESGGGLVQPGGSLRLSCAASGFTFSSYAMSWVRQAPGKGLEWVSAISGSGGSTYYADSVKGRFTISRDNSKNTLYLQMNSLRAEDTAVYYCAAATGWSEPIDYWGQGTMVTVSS
VL: SYVLTQPPSVSVAPGQTATITCGGNNIGLKSVHWYQQKPGQAPLLVVHDDSARPSGIPERFSGSNSGNTATLTISRVEAGDEADYSCQVWDNSGGLWVFGGGTKVTVLG
notes: also called Ab 1
Take B1: in [1], the binding result is reported as “no binding”. The results for the “Absorbance (450 nM)” value in [2] and in assay [3] were 0.052 and 0.059, respectively.

B2: Antibody 1 IgG (antibody, V domains shown)
VH: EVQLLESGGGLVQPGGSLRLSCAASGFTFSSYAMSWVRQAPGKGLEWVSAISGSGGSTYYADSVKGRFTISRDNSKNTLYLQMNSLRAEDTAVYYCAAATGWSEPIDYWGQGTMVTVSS
VL: SYVLTQPPSVSVAPGQTATITCGGNNIGLKSVHWYQQKPGQAPLLVVHDDSARPSGIPERFSGSNSGNTATLTISRVEAGDEADYSCQVWDNSGGLWVFGGGTKVTVLG
notes: also called Ab 1
In the case of B2, in assay [4], the “Europium Counts” value was 1340 counts. The binding result in assay [5] is “no binding”. Also, the figures for the “% delta F” value in assay [6], in assay [7] and in [8] were 11%, 4% and 8%, respectively.

B3: Antibody 4 scFv (scFv, V domains shown)
VH: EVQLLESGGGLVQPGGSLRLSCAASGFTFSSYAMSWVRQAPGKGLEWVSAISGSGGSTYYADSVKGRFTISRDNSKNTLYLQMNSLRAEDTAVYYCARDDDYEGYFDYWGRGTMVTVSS
VL: QAVLTQPSSVSGAPGQRVSISCTGSSSNIGAGYEVHWYQHLPGTAPKLLIYGNNNRPSGVPDRFSGSKSGTSASLAITGLQAEDEADYYCQSYDNNLPGSRVFGGGTKVTVLG
notes: also called Ab 4
Take B3: the binding result in assay [1] is “no binding”. Also, the “Absorbance (450 nM)” value stood at 0.053 in assay [2] and 0.167 in assay [3].

B4: Antibody 4 IgG (antibody, V domains shown)
VH: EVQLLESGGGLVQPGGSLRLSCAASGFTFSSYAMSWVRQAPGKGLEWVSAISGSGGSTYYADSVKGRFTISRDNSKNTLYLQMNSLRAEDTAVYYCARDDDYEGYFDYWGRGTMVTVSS
VL: QAVLTQPSSVSGAPGQRVSISCTGSSSNIGAGYEVHWYQHLPGTAPKLLIYGNNNRPSGVPDRFSGSKSGTSASLAITGLQAEDEADYYCQSYDNNLPGSRVFGGGTKVTVLG
notes: also called Ab 4
Take B4: in assay [4], the “Europium Counts” value was found to be 2000 counts. In addition, the binding result in assay [5] is reported as “no binding”. Moreover, the “% delta F” value in assay [6] worked out at 7%; in assay [7], 18%; in assay [8], 13%.

B5: Antibody 2 scFv (scFv, V domains shown)
VH: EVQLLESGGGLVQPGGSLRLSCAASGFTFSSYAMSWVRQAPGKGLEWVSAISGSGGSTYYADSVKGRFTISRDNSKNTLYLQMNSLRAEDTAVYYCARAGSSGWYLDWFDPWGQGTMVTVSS
VL: QAVLTQPSSVSGAPGQRVTISCAGSSSNIGAGYDVHWYQQVPGTAPKLLIYGDTNRPSGVPDRFSGSKFGTSASLTITGLQAEDEADYYCQSYDNSLSTSDWVFGGGTKVTVLG
notes: also called Ab 2
On to B5, for which the binding result in [1] is on record as “no binding”. The “Absorbance (450 nM)” value in assay [2] was determined as 0.052; in assay [3] it was 0.083.

B6: Antibody 2 IgG (antibody, V domains shown)
VH: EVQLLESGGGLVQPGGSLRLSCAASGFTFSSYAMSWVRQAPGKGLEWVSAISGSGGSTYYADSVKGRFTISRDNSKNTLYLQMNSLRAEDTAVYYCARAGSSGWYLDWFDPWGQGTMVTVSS
VL: QAVLTQPSSVSGAPGQRVTISCAGSSSNIGAGYDVHWYQQVPGTAPKLLIYGDTNRPSGVPDRFSGSKFGTSASLTITGLQAEDEADYYCQSYDNSLSTSDWVFGGGTKVTVLG
notes: also called Ab 2
For B6, in assay [4], the “Europium Counts” value worked out at 2450 counts. Further, the binding result in assay [5] is on record as “no binding”. Also, the “% delta F” value came out at 5% in assay [6], 10% in [7] and 11% in assay [8].

B7: Antibody 3 scFv (scFv, V domains shown)
VH: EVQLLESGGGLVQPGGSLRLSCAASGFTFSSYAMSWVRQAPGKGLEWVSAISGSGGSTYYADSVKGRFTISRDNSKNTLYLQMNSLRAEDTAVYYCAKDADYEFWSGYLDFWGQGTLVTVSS
VL: QSVLTQPPSVSGAPGQRVNISCTGSSSNIGAGYDVHWYQQLPGTAPKLLIYGNNNRPSGVPDRFSGSKSGTSASLAITGLQAEDEADYYCQSYDSSLSGYVFGTGTKVTVLG
notes: also called Ab 3
For the molecule B7, the binding result in assay [1] is “no binding”. Moreover, the “Absorbance (450 nM)” value worked out at 0.049 in assay [2] and 0.056 in [3].

B8: Antibody 5 IgG (antibody, V domains shown)
VH: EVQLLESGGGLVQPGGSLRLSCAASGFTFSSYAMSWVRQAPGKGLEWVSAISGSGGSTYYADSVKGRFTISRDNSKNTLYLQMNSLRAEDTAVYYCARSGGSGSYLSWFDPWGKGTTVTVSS
VL: QSVLTQPPSVSGAPGQRVTISCTGSSSNIGAGYDVHWYQQLPGTAPKLLIYGNSNRPSGVPDRFSGSKSGTSASLAITGLQAEDEADYYCQSYDSSLSGWVFGGGTKVTVLG
notes: also called Ab 5
In the case of B8, in [9], the IC50 is 0.7 nM. Also, the “Europium Counts” value in [10] is 417000 counts; in assay [4], 1500 counts; in assay [11], 383000 counts; in assay [12], 1730 counts; in assay [13], 120000 counts. Moreover, the binding result in [5] and in [14] was “no binding” throughout. Also, the “% delta F” value came to 3% in assay [6]; 9% in assay [7]; 1% in assay [8]; 331% in assay [15]; 4% in [16].

B9: Antibody 3 IgG (antibody, V domains shown)
VH: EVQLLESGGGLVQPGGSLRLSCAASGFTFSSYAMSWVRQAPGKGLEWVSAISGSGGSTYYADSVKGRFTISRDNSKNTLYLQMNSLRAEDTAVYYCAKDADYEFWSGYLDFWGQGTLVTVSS
VL: QSVLTQPPSVSGAPGQRVNISCTGSSSNIGAGYDVHWYQQLPGTAPKLLIYGNNNRPSGVPDRFSGSKSGTSASLAITGLQAEDEADYYCQSYDSSLSGYVFGTGTKVTVLG
notes: also called Ab 3
Consider B9, for which the “Europium Counts” value in [4] was determined as 1420 counts. The binding result in [5] is on record as “no binding”. The results for the “% delta F” value in [6], in assay [7] and in [8] were 11%, 6% and 10%, respectively.

What is called IC50 is the midpoint of a concentration-inhibition curve. Read a low IC50 as greater potency.

The values above are taken from US20100098709A1 (AstraZeneca / MedImmune, published 2010).
